Experimental data as given in patent US20240325555A1 (LANOVA MEDICINES, published 2024).

T1: human LIV-1 (human, UniProt Q13433 29-755)
T1 sequence (looked up): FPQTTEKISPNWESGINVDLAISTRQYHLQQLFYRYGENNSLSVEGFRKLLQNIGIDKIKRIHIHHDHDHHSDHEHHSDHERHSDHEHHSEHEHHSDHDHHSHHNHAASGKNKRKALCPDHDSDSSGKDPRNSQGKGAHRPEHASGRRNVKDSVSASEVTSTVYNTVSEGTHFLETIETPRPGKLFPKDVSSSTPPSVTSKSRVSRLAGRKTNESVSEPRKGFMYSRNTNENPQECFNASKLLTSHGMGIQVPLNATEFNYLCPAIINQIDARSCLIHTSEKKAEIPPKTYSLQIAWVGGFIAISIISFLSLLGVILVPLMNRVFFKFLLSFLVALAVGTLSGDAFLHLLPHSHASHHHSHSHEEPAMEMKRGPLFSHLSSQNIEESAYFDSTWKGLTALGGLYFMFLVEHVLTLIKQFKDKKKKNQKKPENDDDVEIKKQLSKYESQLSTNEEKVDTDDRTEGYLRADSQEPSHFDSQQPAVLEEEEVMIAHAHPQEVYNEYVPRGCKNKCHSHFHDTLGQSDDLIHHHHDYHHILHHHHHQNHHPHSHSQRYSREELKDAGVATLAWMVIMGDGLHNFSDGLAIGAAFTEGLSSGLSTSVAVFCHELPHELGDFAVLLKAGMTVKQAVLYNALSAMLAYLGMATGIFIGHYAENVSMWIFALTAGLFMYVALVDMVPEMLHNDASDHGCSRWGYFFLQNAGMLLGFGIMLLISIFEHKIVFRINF


Key:
human LIV-1 [1] = target: T1, human LIV-1; assay: cell-based or functional assay
human LIV-1 [2] = target: T1, human LIV-1; assay: FACS, HEK293/H_LIV-1 cells
Summary of the method: (§1)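 HEK293 cells over-expressing human or cyno LIV-1 incubated with chimeric Abs (from 100 nM, 5-fold dilutions, 8 points) for 60 min at 4 °C, then fluorescent secondary antibody 30 min at 4 °C; washes in 2% FBS/PBS. Binding read by flow cytometry; EC50 from the titration curve.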

human LIV-1 [3] = target: T1, human LIV-1; assay: cell-based or functional assay; remark: listed apart in the source
cynomolgus LIV-1 = cynomolgus LIV-1 (cynomolgus, UniProt A0A2K5WH46 30-741); assay: FACS, HEK293/Cyno_LIV-1 cells
Summary of the method: as §1

human LIV-1 [4] = target: T1, human LIV-1; assay: cell-based or functional assay; remark: listed apart in the source
human LIV-1 [5] = target: T1, human LIV-1; assay: cell-based or functional assay; remark: listed apart in the source
human LIV-1 [6] = target: T1, human LIV-1; assay: FACS, HEK293/H_LIV-1 cells; remark: listed apart in the source
Method: (§2) Cell based binding of ADC and naked of ADC on human LIV-1 expressing cells were assessed using flow cytometry. Briefly, HEK293/H_LIV-1, both low- and high-expressing H-LIV1-positive cell lines were incubated with ADC and naked of ADC (from 100 nM, 6 folds dilution, 8 points), respectively. After incubation at 4° C. for 60 minutes, the cells were washed with FACS buffer twice, then stained with fluorescent conjugated secondary antibody at 4° C. for 30 minutes. After that the cells were washed twice and analyzed by flow cytometry.

human LIV-1 [7] = target: T1, human LIV-1; assay: FACS, BT20/H_LIV-1 Low cells
Method: as §2

human LIV-1 [8] = target: T1, human LIV-1; assay: FACS, BT20/H_LIV-1 High cells
Method: as §2

Binder | ADCC reporter EC50 (human LIV-1 [1]) | ADCC reporter Top (RFU) (human LIV-1 [1]) | EC50 (human LIV-1 [2]) | Top (MFI) (human LIV-1 [2]) | EC50 (cynomolgus LIV-1) | Top (MFI) (cynomolgus LIV-1) | Internalization EC50 (human LIV-1 [4]) | Internalization Top (RFU) (human LIV-1 [4]) | EC50 (human LIV-1 [6]) | Top (MFI) (human LIV-1 [6]) | EC50 (human LIV-1 [7]) | Top (MFI) (human LIV-1 [7]) | EC50 (human LIV-1 [8]) | Top (MFI) (human LIV-1 [8]) | Cell viability(%) (human LIV-1 [3]) | Cytotoxicity IC50 (human LIV-1 [3]) | Min cell viability %, BT20/H_LIV-1 High (human LIV-1 [5]) | Min cell viability %, BT20/H_LIV-1 Low (human LIV-1 [5]) | Min cell viability %, HEK293/H_LIV-1 (human LIV-1 [5])
248H1G3 (antibody, V domains shown, Tested as chimeric antibody) VH: EVQLQQSGPELMKRGASVKISCKTSTFTFTEFTIHWVKQSHGKSLEWIGGINPNTGGTSYNQNFTGKATLTVDKSSITAYMELRSLTSEDSAIYYCAPNWDGYWFFDVWGAGTTVTVSS VL: DIQMTQSPASLSASVGETVTITCRASGNIQNYLAWYQQKQGKSPQLLVYGAKTLADGVPSRFSGSGSGTQFSLKINSLQPEDFGSYYCQHFWSPPLTFGAGTKLELK | 0.5 nM | 61600 RFU | 0.89 nM | 9640 MFI | 2.05 nM | 2700 MFI | 4.6 nM | 357000 RFU | – | – | – | – | – | – | 3.31% | 2.99 nM | – | – | –
135C6E7 (antibody, V domains shown, Tested as chimeric antibody) VH: EVQLVESGGGLVQPKGSLKLSCAASGFTFNTYAMNWVRQAPGKGLEWVARIRSKYNSYATYYADSVKDRFTISRDDSQSILYLQMNNLKTEDTAMYYCVRHEDYDGGFAYWGQGTLVTVSA VL: DIVMSQSPSSLAVSVGEKVTMSCKSSQSLFKSRTRKNYLAWYQQKPGQSPKLLIYWASTRESGVPDRFTGSGSGTDFTLTISSVQAEDLAVYYCKESYNLMYTFGGGTKLEIK | 6.4 nM | 53100 RFU | 3.6 nM | 16500 MFI | 2.69 nM | 6290 MFI | 12.4 nM | 675000 RFU | – | – | – | – | – | – | 17.6% | 4.6 nM | – | – | –
286B5E6 (antibody, V domains shown, Tested as chimeric antibody) VH: not shown VL: DIVLTQSPASLAVSLGQRATISCKASQSVDYDGDSYMNWYQQKPGQPPKLLIYAASNLESGIPARFSGSGSGTDFTLNIHPVEEEDAATYYCQQSNEGPYTFGGGTKLEIK | 1.1 nM | 47800 RFU | 0.32 nM | 8090 MFI | 0.55 nM | 2490 MFI | 4.6 nM | 448000 RFU | – | – | – | – | – | – | 4.88% | 1.39 nM | – | – | –
108H1D4 (antibody, V domains shown, Tested as chimeric antibody) VH: EVKLVESGGDLVQPGGSRKLSCAASGFTFSDYGMAWFRQAPGKGPEWVAFISNLAYNIYYADTVTGRFTISRENARNTLYLEMSSLRSEDTAMYYCAREGGITTVPATDYFDYWGQGTTLTVSS VL: DIQMTQTTSSLSASLGDRVTFSCRASQDIRNYLNWYQQKPDGTVKLLIYYTSRLHSGVPSRFSGSGSGTDYSLTINNLEQEDLATYFCQQVNALPLTFGAGTKLELK | 8.3 nM | 139000 RFU | 0.9 nM | 8800 MFI | 130 nM | 762 MFI | 4.8 nM | 511000 RFU | – | – | – | – | – | – | 17.3% | 0.7 nM | – | – | –
124H4D11.p2.z4-Eribulin (antibody, V domains shown, Eribulin drug moiety conjugated; site and chain not stated, Antibody-drug conjugate of 124H4D11.p2.z4; human gamma 1/kappa) VH: QVQLVQSGAEVVKPGASVKVSCKASGFNIKDYYMHWVRQAPGQGLEWIGWIDPENDDTEYDPKFQGRVTMTADTSTSTVYMELSSLRSEDTAVYYCAARYYAFDYWGQGTMVTVSS VL: DVLMTQSPLSLPVTLGQPASISCRSSQSIVHSNANTYLEWYLQRPGQSPRLLIYKVSNRFSGVPDRFSGSGSGTDFTLKISRVEAEDVGVYYCFQGSQVPPTFGQGTKLEIK | – | – | – | – | – | – | – | – | 0.1 nM | 19400 MFI | 0.05 nM | 3100 MFI | 0.1 nM | 19200 MFI | – | – | 20.7% | 37.9% | 21.5%
124H4D11.p2.z4-MMAE (antibody, V domains shown, MMAE drug moiety conjugated; site and chain not stated, Antibody-drug conjugate of 124H4D11.p2.z4; human gamma 1/kappa) VH: QVQLVQSGAEVVKPGASVKVSCKASGFNIKDYYMHWVRQAPGQGLEWIGWIDPENDDTEYDPKFQGRVTMTADTSTSTVYMELSSLRSEDTAVYYCAARYYAFDYWGQGTMVTVSS VL: DVLMTQSPLSLPVTLGQPASISCRSSQSIVHSNANTYLEWYLQRPGQSPRLLIYKVSNRFSGVPDRFSGSGSGTDFTLKISRVEAEDVGVYYCFQGSQVPPTFGQGTKLEIK | – | – | – | – | – | – | – | – | 0.08 nM | 20200 MFI | 0.07 nM | 3420 MFI | 0.11 nM | 20000 MFI | – | – | 18.6% | 40.3% | 15.8%
5D6B10.z7-Eribulin (antibody, V domains shown, Eribulin drug moiety conjugated; site and chain not stated, Antibody-drug conjugate of 5D6B10.z7; human gamma 1/kappa) VH: QVQLVQSGGGVVQPGRSLRLSCTVSGFSLTTYGIHWVRQSPGKGLEWLGVIWTGGTTDYNAAFISRLTISKDNSKSTVYFQMNSLQAEDTAIYYCARGPSSYWGQGTLVTVSS VL: EIVMTQSPATLSVSPGERATLSCKASQNVDTNVVWYQQKPGQSPRALIYSASYRYSGVPARFSGSGSGTEFTLTISSLQSEDFAVYFCQQYNNYPWTFGQGTKVEIK | – | – | – | – | – | – | – | – | 0.47 nM | 98700 MFI | 0.5 nM | 37200 MFI | 0.87 nM | 154000 MFI | – | – | 31.5% | 42.9% | 21.2%
290F10G10.z2-Eribulin (antibody, V domains shown, Eribulin drug moiety conjugated; site and chain not stated) VH: EVQLVQSGAEVKKPGASVKVSCKASGYTFTSYWIHWVRQAPGQGLEWMGTIYPGDADTRSTQKFKDRVTMTADTSTSTVYMELSSLRSEDTAVYYCARSLIHDDYDKYYFDYWGQGTTVTVSS VL: DIQMTQSPSSLSASVGDRVTITCKARQDINKYIAWYQQKPGKAPKLLIHYTSILQPGIPSRFSGSGSGRDYTFTISSLQPEDIATYYCLQYDYFFTFGGGTKVEIK | – | – | – | – | – | – | – | – | 0.55 nM | 18800 MFI | 1.14 nM | 3620 MFI | 1.2 nM | 21000 MFI | – | – | 17.6% | 38.4% | 18.4%

Continued, in another order:

ADCC reporter EC50 (human LIV-1 [1]) | ADCC reporter Top (RFU) (human LIV-1 [1]) | EC50 (human LIV-1 [2]) | Top (MFI) (human LIV-1 [2]) | EC50 (cynomolgus LIV-1) | Top (MFI) (cynomolgus LIV-1) | Internalization EC50 (human LIV-1 [4]) | Internalization Top (RFU) (human LIV-1 [4]) | EC50 (human LIV-1 [6]) | Top (MFI) (human LIV-1 [6]) | EC50 (human LIV-1 [7]) | Top (MFI) (human LIV-1 [7]) | EC50 (human LIV-1 [8]) | Top (MFI) (human LIV-1 [8]) | Binder | Cell viability(%) (human LIV-1 [3]) | Cytotoxicity IC50 (human LIV-1 [3]) | Min cell viability %, BT20/H_LIV-1 High (human LIV-1 [5]) | Min cell viability %, BT20/H_LIV-1 Low (human LIV-1 [5]) | Min cell viability %, HEK293/H_LIV-1 (human LIV-1 [5])
1.2 nM | 11300 RFU | 1.12 nM | 19700 MFI | 0.87 nM | 13000 MFI | 41.2 nM | 227000 RFU | – | – | – | – | – | – | 282G5A2 (antibody, V domains shown, Tested as chimeric antibody) VH: QVQLQQSGAELVRPGTSVKVSCKASGYALTKYLIEWIKQRPGQGLEWIGVINPGNAGNNYNEKFKGKATLTVDQSSSTAYMQLSSLTSEDSAVYFCARRGRDYAMDNWGQGTSVTVSS VL: EIVLTQSPAIMSASLGEKVTMSCRASSSINYIYWYQQKSDASPKLWIYYTSNLAPGVPARFSGSGSGNSYSLTISSMEDEDAATYYCQQFTSSPLTFGAGTKLELK | 8.58% | 12.1 nM | – | – | –
7.9 nM | 133000 RFU | 0.45 nM | 8100 MFI | 0.98 nM | 2250 MFI | 6.1 nM | 495000 RFU | – | – | – | – | – | – | 293F10B6 (antibody, V domains shown, Tested as chimeric antibody) VH: QVTLKESGPGMLQPSQTLNLTCSFSGFSLNTSGMGVSWIRQPSGKGLEWLAHIFWDDDKRYNPSLKSRLTISKDVSSNQVFLKITSVDTADTATYFCARRARNNYPWFPYWGQGTLVTVSA VL: DIVLTQSPASLAVSLGQRATISCKASQSVDYDGDSYMNWYQQKPGQPPKLLIYAASNLDSGIPARFSGSGSGTDFTLNIHPMEDEDVATYYCQQSNGAPFTFGGGTKLEIK | 3.41% | 1.46 nM | – | – | –
– | – | – | – | – | – | – | – | 0.51 nM | 96400 MFI | 0.5 nM | 35300 MFI | 0.98 nM | 149000 MFI | 5D6B10.z7-MMAE (antibody, V domains shown, MMAE drug moiety conjugated; site and chain not stated, Antibody-drug conjugate of 5D6B10.z7; human gamma 1/kappa) VH: QVQLVQSGGGVVQPGRSLRLSCTVSGFSLTTYGIHWVRQSPGKGLEWLGVIWTGGTTDYNAAFISRLTISKDNSKSTVYFQMNSLQAEDTAIYYCARGPSSYWGQGTLVTVSS VL: EIVMTQSPATLSVSPGERATLSCKASQNVDTNVVWYQQKPGQSPRALIYSASYRYSGVPARFSGSGSGTEFTLTISSLQSEDFAVYFCQQYNNYPWTFGQGTKVEIK | – | – | 28.4% | 43.5% | 15%
